From patent publication US7087717B2, “Sp110, a polypeptide component of the nuclear body” (The General Hospital Corporation, priority 2000, dated 2006)

B1: C-terminal portion: C-terminal portion of Sp110, containing the PHD and the bromodomain, fused to VP16 or GAL4 (protein)
chain: KRKNSDECEVCCQGGQLLCCGTCPRVFHEDCHIPPVEAKRMLWSCTFCRMKRSSGSQQCHHVSKTLERQMQPQDQLIRDYGEPFQEAMWLDLVKERLITEMYTVAWFVRDMRLMFRNHKTFYKASDFGQVGLDLEAEFEKDLKDVLGFHEANDGGFWTLP
modifications: left off: large carriers
notes: C-terminal portion of Sp110, containing the PHD and the bromodomain, fused to VP16 or GAL4
B2: IFN-γ: interferon (protein, UniProt P01579 24-161, looked up)
Interferon gamma: QDPYVKEAENLKKYFNAGHSDVADNGTLFLGILKNWKEESDRKIMQSQIVSFYFKLFKNFKDDQSIQKSVETIKEDMNVKFFNSNKKKRDDFEKLTNYSVTDLNVQRKAIHELIQVMAELSPAAKTGKRKRSQMLFRG
B3: Sp110: novel 110 kDa polypeptide component of the nuclear body, 689 amino acids, SEQ ID NO:2 (protein, listed as Homo sapiens)
chain: MFTMTRAMEEALFQHFMHQKLGIAYAIHKPFPFFEGLLDNSIITKRMYMESLEACRNLIPVSRVVHNILTQLERTFNLSLLVTLFSQINLREYPNLVTIYRSFKRVGASYERQSRDTPILLEAPTGLAEGSSLHTPLALPHHKPPQPSCSPCAPRVSEPGTSSQQSTEILSESPSPSDPVLPLPALIQEGRSTSVTNDKLTSKMNAEEDSEEMPSLLTSTVQVASDNLIPQIRDKEDPQEMPHSPLGSMPEIRDNSPEPNDPEEPQEVSSTPSDKKGKKRKRCIWSTPKRRHKKKSLPRGTASSRHGIQKKLKRVDQVPQKKDDSTCNSTVETRAQKARTECARKSRSEEIIDGTSEMNEGKRSQKTPSTPRRVTQGAASPGHGIQEKLQVVDKVTQRKDDSTWNSEVMMRVQKARTKCARKSRSKEKKKEKDICSSSKRRFQKNIHRRGKPKSDTVDFHCSKLPVTCGEAKGILYKKKMKHGSSVKCIRNEDGTWLTPNEFEVEGKGRNAKNWKRNIRCEGTTLGELLKRKNSDECEVCCQGGQLLCCGTCPRVFHEDCHIPPVEAKRMLWSCTFCRMKRSSGSQQCHHVSKTLERQMQPQDQLIRDYGEPFQEAMWLDLVKERLITEMYTVAWFVRDMRLMFRNHKTFYKASDFGQVGLDLEAEFEKDLKDVLGFHEANDGGFWTLP
B4: Sp110m: mutant Sp110 protein in which two of the three LXXLL leucine residues were changed, one to valine and one to alanine (LXXVA) (protein)
chain: B3 chain
B5: N-terminal portion: N-terminal portion of Sp110, containing the Sp100-like region, fused to VP16 or GAL4 (protein)
chain: MFTMTRAMEEALFQHFMHQKLGIAYAIHKPFPFFEGLLDNSIITKRMYMESLEACRNLIPVSRVVHNILTQLERTFNLSLLVTLFSQINLREYPNLVTIYRSFKRVGASYERQSRDTPILLEAPTGLAEGSSLHTPLALPHHKPPQPSCSPCAPRVSEPGTSSQQSTEILSESPSPSDPVLPLPALIQEGRSTSVTNDKLTSKMNAEEDSEEMPSLLTSTVQVASDNLIP
modifications: left off: large carriers
notes: N-terminal portion of Sp110, containing the Sp100-like region, fused to VP16 or GAL4

Key:
[1] = system: CAT reporter plasmid containing five GAL4 binding sites and an SV40 enhancer region (pG5SV-BCAT); test: GAL4 fusion / CAT reporter gene transcription assay in COS cells; type: cell-based
From the text: To examine the potential effect of Sp110 on gene transcription, a eukaryotic expression plasmid encoding Sp110 fused to the DNA-binding domain of GAL4 (pBXG-Sp1110) was co-transfected with a CAT reporter plasmid containing five GAL4 binding sites and an SV40 enhancer region (pG5SV-BCAT) into COS cells.
To identify the portion of Sp110 that enhances reporter gene expression, DNA segments encoding fragments of Sp110 fused to GAL4 were expressed with a reporter gene in COS cells. […] The mechanism by which Sp110 enhances PPARα-mediated gene transcription can be investigated, as described below, by identifying proteins that interact with the activation domain and SAND domain.

CBP = test: Mammalian two-hybrid assay with GAL4-CBP in COS cells; type: cell-based; conditions: VP16 fusions, compared with VP16 alone
From the text: PPARα interacted with the N-terminal portion of CBP/p300 between amino acid residues 39 and 221. To determine whether Sp110 also interacts with CBP, the mammalian two-hybrid system was used as an assay. In this assay, the GAL4 DNA-binding domain (GAL4) fused to CBP (GAL4-CBP) and a luciferase reporter gene containing GAL4 response elements were expressed in COS cells with either Sp110 fused to the herpes simplex virus VP16 activation domain (VP16-Sp110) or VP16 alone. […] Thus, Sp110 interacts, either directly or indirectly, with CBP. The site of functional interaction between Sp110 and CBP was mapped more specifically to amino acid residues 271–720 of CBP. The Sp110-CBP functional interaction domain is therefore distinct from the PPARα-CBP interaction domain.
To identify the portion of Sp110 that functionally interacts with CBP, the N-terminal or C-terminal portions of Sp110 were fused to VP16 and expressed in COS cells together with GAL4CBP and a reporter gene. […] As described below, studies can be carried out to further delineate the domains that mediate functional interaction between Sp110 and CBP and to test whether Sp110 interacts with CBP directly.

HL60 cells = test: Sp110 mRNA level by RNA blot after IFN-γ treatment; type: cell-based, human; conditions: 200 units/ml, 48 hours
Protocol: To investigate the expression of Sp110 in cells of the monocyte/granulocyte lineage, RNA was prepared from the myeloid precursor cell lines HL60 and NB4 (HL60 cells are available from the American Type Culture Collection, Manassas, Va.). RNA was extracted from these cell lines using the guanidinium isothiocyanate-cesium chloride method (Sambrook et al., Cold Spring Harbor Laboratory, Cold Spring Harbor, N.Y., 1989). The HL60 cells were maintained in RPMI supplemented with 10% fetal calf serum, L-glutamine (2 mM), penicillin (200 units/ml), and streptomycin (200 mg/ml). RNA was fractionated in formaldehyde-agarose gels (5 μg/lane) and equal loading of RNA was confirmed by staining 28S and 18S ribosomal RNA with ethidium bromide. RNA was transferred to nylon membranes and the membranes were hybridized with the radiolabeled XbaI restriction fragment of the Sp110 cDNA or the EcoRI/BamHI restriction fragment of the cDNA encoding human Sp100 (Bloch et al., J. Biol. Chem. 46:29198–29204, 1996). Membranes were washed and analyzed by autoradiography. Low levels of Sp110 mRNA were detected in both NB4 cells and HL60 cells.
To examine the effect of cellular differentiation on Sp110 mRNA, NB4 cells were treated for 48 hours with all trans retinoic acid (ATRA) (1 μM). […] To examine the effect of IFN-γ treatment on Sp110 mRNA levels, HL60 cells were treated with IFN-γ (200 units/ml) for 48 hours.

PPARγ receptor = test: PPARγ signal transduction reporter assay; type: cell-based
RARα response element = test: RAR transcriptional co-activation reporter assay; type: cell-based; conditions: for signal transduction through RARα / expression of the reporter gene: expressed with RARα
Protocol: Experiments were also performed to determine whether Sp110 could function as a retinoic acid receptor (RAR) transcriptional co-activator. […] The extent of reporter gene activation by Sp110 was similar to that induced by the nuclear body component PML.

PPARα = PPARα co-activation reporter assay (PPRE) in COS cells; type: cell-based; conditions: COS cells co-transfected with PPARα; compared with PPARα expressed alone
From the text: Sp110 also acted as a co-activator of PPARα. […] Sp110 may interact with nuclear hormone receptors via an LXXLL domain. To determine whether Sp110 interacts with PPARα via the LULL domain, oligonucleotides and PCR were used to prepare a mutant Sp110 protein (Sp110m) in which two of the three leucine residues were changed, one to valine and one to alanine (LXXVA).

| signal transduction through the PPARγ receptor (PPARγ receptor) | Molecule | reporter gene expression by fragments of Sp110 fused to GAL4 [1] | GAL4-CBP-induced luciferase reporter gene activity (CBP) | signal transduction through RARα / expression of the reporter gene (RARα response element) | agonist-induced expression of the PPRE reporter gene / activation of the PPARα receptor (PPARα) | other results |
| --- | --- | --- | --- | --- | --- | --- |
| – | B1 | Neither the N-terminal (Sp100-like domain), nor the C-terminal (PHD/bromodomain) portions of Sp110 increased expression of the reporter gene | enhanced | – | – | – |
| – | B2 | – | – | – | – | Sp110 mRNA level (HL60 cells): marked increase |
| enhanced signal transduction | B3 | – | – | enhanced signal transduction | markedly enhanced | ATRA-induced expression of the reporter gene (RARα response element; COS cells, reporter with three copies of the RARα response element): significantly enhanced |
| enhanced signal transduction | B4 | – | – | also enhanced expression of the reporter gene | less than wild-type Sp110 | – |
| – | B5 | Neither the N-terminal (Sp100-like domain), nor the C-terminal (PHD/bromodomain) portions of Sp110 increased expression of the reporter gene | did not | – | – | – |
